In general, Kd refers to a measure of binding affinity in units of concentration.

For assay [1], the target named is VRC01 IgG1 bound to its antigen (not stated | HIV-1, strain BaL). Briefly: ITC. On the technique in general: ITC needs no label: the signal is the heat of the interaction.
The target in the next assay is VRC01 IgG1. Briefly: ITC.

For “human FcγRIIIa-V158, soluble extracellular domain (receptor)”, the results for the equilibrium dissociation constant (Kd) (in assay [1]; with VRC01 IgG1) were 547 nM and 150 nM, respectively.

Source of the values: publication PMC10324447.
